Reference: article PMC2997714 (Developmental cell, 2009)
Values joined by “and” are separate entries in the source; they are usually repeats but may differ in a detail not shown here. Equal entries are not always repeated.

Molecular target: the molecule itself
Assay: cross-linking

B1: recombinant His-klp9p (natural protein, S. pombe (fission yeast), UniProt Q1MTQ7 1-633, looked up)
chain: MIQIFLRVKKAQPSSDASNKYGFLTVLNDYEILLESPEDSHAYRVSKSKTLEKASFTKVFPPSCTQLDVFSTICAPLIADSLVNMNDTLLFTLGVSGAGKTYTLFGPSDRPGVAFLALDALFYAIKGREASPQTVEFLRSQLEKCKIVEASKFLRGEAPLDIKVPNTEYYASHFPKIEEKNYQYAIYLSFAEIYNDRIFDLLEKASFFGHRHALSLKKSSTSDKKSIAGIQKVFVSNTTEAYKLIQKVLQLRKSTSTKSNSVSSRSHLIMSIELFKVCTKSNKFESCQIDLVDLAGSERTRSAETSGLLLREGASINRSLLTLGQCLEALRRKHEGKQHIIPFRQSKLTELLFHSGHLSGLAGINMLVNIDPFGSFDENAQVMRYSANAREILPPPLNENSGSQSPSHSLLQKSKNTSSTKALTSHLEQLQQENQQLRMLLADADSEMMNLEYEIRQQMTREMEERVSEVERTFLTKLLEESAQGIEYTDQKLEKMGGWMKKLQDENSEKTETIAQLEQIIEELHEELRSLEEESIKESSATQQNENQHKRSSRKLLYEDKQAIQEAHTINTKRKLWPQSTLIQAPNSDDEENVPSPSPKKKVVSPIKPLSPSRRPPLTSLYSGTTDIDINEL
stoichiometry N: 2 and 4
